Data reported in US20210139548A1 (published 2021).
*1 amine or outer side, *2 acyl side, *3 side chain or, on linkers, in order; H or OH if unused. Side-chain parts run from the residue outwards. The star is where a group is joined. C18 diacid = O=C(O)CCCCCCCCCCCCCCCCC(=O)*; γGlu = O=C(O)[C@H](CCC(=O)[*:2])N[*:1]; Isovaleryl = CC(C)CC(=O)*; AEEA = NCCOCCOCC(=O)O

Target: T1, human neuropeptide Y2 receptor (human, UniProt P49146 1-381)
T1 construct: whole, on cells; also called hNPY2 receptor; hNPY2-R
T1 sequence (looked up): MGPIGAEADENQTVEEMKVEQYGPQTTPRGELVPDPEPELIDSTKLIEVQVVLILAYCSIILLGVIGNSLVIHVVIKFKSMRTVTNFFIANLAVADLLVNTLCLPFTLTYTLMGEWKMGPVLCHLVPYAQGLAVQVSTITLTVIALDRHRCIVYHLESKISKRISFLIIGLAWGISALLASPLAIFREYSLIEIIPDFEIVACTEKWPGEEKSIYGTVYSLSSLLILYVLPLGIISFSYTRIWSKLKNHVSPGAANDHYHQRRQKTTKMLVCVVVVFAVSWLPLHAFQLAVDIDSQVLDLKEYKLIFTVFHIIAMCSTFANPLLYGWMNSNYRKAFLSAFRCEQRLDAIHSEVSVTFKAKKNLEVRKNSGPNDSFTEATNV
Assay: radioligand competition (125I-PYY(1-36)), hNPY2R membranes
Method in brief: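 Commercial human Y2 receptor membranes (0.5 μg protein/well) were incubated with peptide for 2 h at room temperature in 50 mM HEPES, 5 mM MgCl₂, 1 mM CaCl₂, pH 7.4, with 0.2% ovalbumin. Bound radioligand was separated on PEI-soaked GF/C filters and counted by scintillation, and IC₅₀ came from nonlinear sigmoidal regression.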

B1: Compound 43 (peptide)
peptide: Isovaleryl-APEK([AEEA-AEEA-γGlu-C18 diacid])PEAPASPEELQRYYVSLRHYYNWLTRQRY-NH2
SMILES: CC(C)CC(=O)N[C@@H](C)C(=O)N1CCC[C@H]1C(=O)N[C@@H](CCC(=O)O)C(=O)N[C@@H](CCCCNC(=O)COCCOCCNC(=O)COCCOCCNC(=O)CC[C@H](NC(=O)CCCCCCCCCCCCCCCCC(=O)O)C(=O)O)C(=O)N1CCC[C@H]1C(=O)N[C@@H](CCC(=O)O)C(=O)N[C@@H](C)C(=O)N1CCC[C@H]1C(=O)N[C@@H](C)C(=O)N[C@@H](CO)C(=O)N1CCC[C@H]1C(=O)N[C@@H](CCC(=O)O)C(=O)N[C@@H](CCC(=O)O)C(=O)N[C@@H](CC(C)C)C(=O)N[C@@H](CCC(N)=O)C(=O)N[C@@H](CCCNC(=N)N)C(=O)N[C@@H](Cc1ccc(O)cc1)C(=O)N[C@@H](Cc1ccc(O)cc1)C(=O)N[C@H](C(=O)N[C@@H](CO)C(=O)N[C@@H](CC(C)C)C(=O)N[C@@H](CCCNC(=N)N)C(=O)N[C@@H](Cc1c[nH]cn1)C(=O)N[C@@H](Cc1ccc(O)cc1)C(=O)N[C@@H](Cc1ccc(O)cc1)C(=O)N[C@@H](CC(N)=O)C(=O)N[C@@H](Cc1c[nH]c2ccccc12)C(=O)N[C@@H](CC(C)C)C(=O)N[C@H](C(=O)N[C@@H](CCCNC(=N)N)C(=O)N[C@@H](CCC(N)=O)C(=O)N[C@@H](CCCNC(=N)N)C(=O)N[C@@H](Cc1ccc(O)cc1)C(N)=O)[C@@H](C)O)C(C)C
A Ki of 0.4 nM was found for B1 in this work.

B2: Compound 44 (peptide)
peptide: Isovaleryl-APEK([AEEA-AEEA-γGlu-C18 diacid])PEEEASPEELQRYYVSLRHYYNWITRQRY-NH2
SMILES: CC[C@H](C)[C@H](NC(=O)[C@H](Cc1c[nH]c2ccccc12)NC(=O)[C@H](CC(N)=O)NC(=O)[C@H](Cc1ccc(O)cc1)NC(=O)[C@H](Cc1ccc(O)cc1)NC(=O)[C@H](Cc1c[nH]cn1)NC(=O)[C@H](CCCNC(=N)N)NC(=O)[C@H](CC(C)C)NC(=O)[C@H](CO)NC(=O)[C@@H](NC(=O)[C@H](Cc1ccc(O)cc1)NC(=O)[C@H](Cc1ccc(O)cc1)NC(=O)[C@H](CCCNC(=N)N)NC(=O)[C@H](CCC(N)=O)NC(=O)[C@H](CC(C)C)NC(=O)[C@H](CCC(=O)O)NC(=O)[C@H](CCC(=O)O)NC(=O)[C@@H]1CCCN1C(=O)[C@H](CO)NC(=O)[C@H](C)NC(=O)[C@H](CCC(=O)O)NC(=O)[C@H](CCC(=O)O)NC(=O)[C@H](CCC(=O)O)NC(=O)[C@@H]1CCCN1C(=O)[C@H](CCCCNC(=O)COCCOCCNC(=O)COCCOCCNC(=O)CC[C@H](NC(=O)CCCCCCCCCCCCCCCCC(=O)O)C(=O)O)NC(=O)[C@H](CCC(=O)O)NC(=O)[C@@H]1CCCN1C(=O)[C@H](C)NC(=O)CC(C)C)C(C)C)C(=O)N[C@H](C(=O)N[C@@H](CCCNC(=N)N)C(=O)N[C@@H](CCC(N)=O)C(=O)N[C@@H](CCCNC(=N)N)C(=O)N[C@@H](Cc1ccc(O)cc1)C(N)=O)[C@@H](C)O
A Ki of 4.44 nM was found for B2 in this work.

B3: Compound 47 (peptide)
peptide: Isovaleryl-APEK([AEEA-AEEA-γGlu-C18 diacid])PPADASPEELQRYYVSLRHYYNWLTRQRY-NH2
SMILES: CC(C)CC(=O)N[C@@H](C)C(=O)N1CCC[C@H]1C(=O)N[C@@H](CCC(=O)O)C(=O)N[C@@H](CCCCNC(=O)COCCOCCNC(=O)COCCOCCNC(=O)CC[C@H](NC(=O)CCCCCCCCCCCCCCCCC(=O)O)C(=O)O)C(=O)N1CCC[C@H]1C(=O)N1CCC[C@H]1C(=O)N[C@@H](C)C(=O)N[C@@H](CC(=O)O)C(=O)N[C@@H](C)C(=O)N[C@@H](CO)C(=O)N1CCC[C@H]1C(=O)N[C@@H](CCC(=O)O)C(=O)N[C@@H](CCC(=O)O)C(=O)N[C@@H](CC(C)C)C(=O)N[C@@H](CCC(N)=O)C(=O)N[C@@H](CCCNC(=N)N)C(=O)N[C@@H](Cc1ccc(O)cc1)C(=O)N[C@@H](Cc1ccc(O)cc1)C(=O)N[C@H](C(=O)N[C@@H](CO)C(=O)N[C@@H](CC(C)C)C(=O)N[C@@H](CCCNC(=N)N)C(=O)N[C@@H](Cc1c[nH]cn1)C(=O)N[C@@H](Cc1ccc(O)cc1)C(=O)N[C@@H](Cc1ccc(O)cc1)C(=O)N[C@@H](CC(N)=O)C(=O)N[C@@H](Cc1c[nH]c2ccccc12)C(=O)N[C@@H](CC(C)C)C(=O)N[C@H](C(=O)N[C@@H](CCCNC(=N)N)C(=O)N[C@@H](CCC(N)=O)C(=O)N[C@@H](CCCNC(=N)N)C(=O)N[C@@H](Cc1ccc(O)cc1)C(N)=O)[C@@H](C)O)C(C)C
A Ki of 0.42 nM was found for B3 in this work.

B4: Compound 45 (peptide)
peptide: Isovaleryl-APEK([AEEA-AEEA-γGlu-C18 diacid])PEEEASPESLQRYYVSLRHYYNWLTRQRY-NH2
SMILES: CC(C)CC(=O)N[C@@H](C)C(=O)N1CCC[C@H]1C(=O)N[C@@H](CCC(=O)O)C(=O)N[C@@H](CCCCNC(=O)COCCOCCNC(=O)COCCOCCNC(=O)CC[C@H](NC(=O)CCCCCCCCCCCCCCCCC(=O)O)C(=O)O)C(=O)N1CCC[C@H]1C(=O)N[C@@H](CCC(=O)O)C(=O)N[C@@H](CCC(=O)O)C(=O)N[C@@H](CCC(=O)O)C(=O)N[C@@H](C)C(=O)N[C@@H](CO)C(=O)N1CCC[C@H]1C(=O)N[C@@H](CCC(=O)O)C(=O)N[C@@H](CO)C(=O)N[C@@H](CC(C)C)C(=O)N[C@@H](CCC(N)=O)C(=O)N[C@@H](CCCNC(=N)N)C(=O)N[C@@H](Cc1ccc(O)cc1)C(=O)N[C@@H](Cc1ccc(O)cc1)C(=O)N[C@H](C(=O)N[C@@H](CO)C(=O)N[C@@H](CC(C)C)C(=O)N[C@@H](CCCNC(=N)N)C(=O)N[C@@H](Cc1c[nH]cn1)C(=O)N[C@@H](Cc1ccc(O)cc1)C(=O)N[C@@H](Cc1ccc(O)cc1)C(=O)N[C@@H](CC(N)=O)C(=O)N[C@@H](Cc1c[nH]c2ccccc12)C(=O)N[C@@H](CC(C)C)C(=O)N[C@H](C(=O)N[C@@H](CCCNC(=N)N)C(=O)N[C@@H](CCC(N)=O)C(=O)N[C@@H](CCCNC(=N)N)C(=O)N[C@@H](Cc1ccc(O)cc1)C(N)=O)[C@@H](C)O)C(C)C
A Ki of 3.97 nM was found for B4 in this work.

B5: Compound 48 (peptide)
peptide: Isovaleryl-APEK([AEEA-AEEA-γGlu-C18 diacid])PEEDTEPEELQRYYVSLRHYYNWLTRQRY-NH2
SMILES: CC(C)CC(=O)N[C@@H](C)C(=O)N1CCC[C@H]1C(=O)N[C@@H](CCC(=O)O)C(=O)N[C@@H](CCCCNC(=O)COCCOCCNC(=O)COCCOCCNC(=O)CC[C@H](NC(=O)CCCCCCCCCCCCCCCCC(=O)O)C(=O)O)C(=O)N1CCC[C@H]1C(=O)N[C@@H](CCC(=O)O)C(=O)N[C@@H](CCC(=O)O)C(=O)N[C@@H](CC(=O)O)C(=O)N[C@H](C(=O)N[C@@H](CCC(=O)O)C(=O)N1CCC[C@H]1C(=O)N[C@@H](CCC(=O)O)C(=O)N[C@@H](CCC(=O)O)C(=O)N[C@@H](CC(C)C)C(=O)N[C@@H](CCC(N)=O)C(=O)N[C@@H](CCCNC(=N)N)C(=O)N[C@@H](Cc1ccc(O)cc1)C(=O)N[C@@H](Cc1ccc(O)cc1)C(=O)N[C@H](C(=O)N[C@@H](CO)C(=O)N[C@@H](CC(C)C)C(=O)N[C@@H](CCCNC(=N)N)C(=O)N[C@@H](Cc1c[nH]cn1)C(=O)N[C@@H](Cc1ccc(O)cc1)C(=O)N[C@@H](Cc1ccc(O)cc1)C(=O)N[C@@H](CC(N)=O)C(=O)N[C@@H](Cc1c[nH]c2ccccc12)C(=O)N[C@@H](CC(C)C)C(=O)N[C@H](C(=O)N[C@@H](CCCNC(=N)N)C(=O)N[C@@H](CCC(N)=O)C(=O)N[C@@H](CCCNC(=N)N)C(=O)N[C@@H](Cc1ccc(O)cc1)C(N)=O)[C@@H](C)O)C(C)C)[C@@H](C)O
A Ki of 38.9 nM was found for B5 in this work.

B6: Compound 49 (peptide)
peptide: Isovaleryl-APEK([AEEA-AEEA-γGlu-C18 diacid])PEEDASPEELQQYYVELRHYYNWLTRQRY-NH2
SMILES: CC(C)CC(=O)N[C@@H](C)C(=O)N1CCC[C@H]1C(=O)N[C@@H](CCC(=O)O)C(=O)N[C@@H](CCCCNC(=O)COCCOCCNC(=O)COCCOCCNC(=O)CC[C@H](NC(=O)CCCCCCCCCCCCCCCCC(=O)O)C(=O)O)C(=O)N1CCC[C@H]1C(=O)N[C@@H](CCC(=O)O)C(=O)N[C@@H](CCC(=O)O)C(=O)N[C@@H](CC(=O)O)C(=O)N[C@@H](C)C(=O)N[C@@H](CO)C(=O)N1CCC[C@H]1C(=O)N[C@@H](CCC(=O)O)C(=O)N[C@@H](CCC(=O)O)C(=O)N[C@@H](CC(C)C)C(=O)N[C@@H](CCC(N)=O)C(=O)N[C@@H](CCC(N)=O)C(=O)N[C@@H](Cc1ccc(O)cc1)C(=O)N[C@@H](Cc1ccc(O)cc1)C(=O)N[C@H](C(=O)N[C@@H](CCC(=O)O)C(=O)N[C@@H](CC(C)C)C(=O)N[C@@H](CCCNC(=N)N)C(=O)N[C@@H](Cc1c[nH]cn1)C(=O)N[C@@H](Cc1ccc(O)cc1)C(=O)N[C@@H](Cc1ccc(O)cc1)C(=O)N[C@@H](CC(N)=O)C(=O)N[C@@H](Cc1c[nH]c2ccccc12)C(=O)N[C@@H](CC(C)C)C(=O)N[C@H](C(=O)N[C@@H](CCCNC(=N)N)C(=O)N[C@@H](CCC(N)=O)C(=O)N[C@@H](CCCNC(=N)N)C(=O)N[C@@H](Cc1ccc(O)cc1)C(N)=O)[C@@H](C)O)C(C)C
A Ki of 0.89 nM was found for B6 in this work.
